Test results: patent US20080171038A1 (KALOBIOS PHARMACEUTICALS, published 2008)

Legend:
Recombinant human GM-CSF [1] = molecular target: T1, Recombinant human GM-CSF (human, UniProt P04141 18-144, biotinylated for the SPR assay (sites not given)); experiment: surface plasmon resonance analysis, monovalent affinity; format not described
T1 construct: Biotinylated and immobilized on a streptavidin CM5 sensor chip in the SPR assay; used in solution at 0.5 ng/ml in the TF-1 proliferation assay (the species is not restated there); also called hGM-CSF; Granulocyte Macrophage-Colony Stimulating Factor

Recombinant human GM-CSF [2] = molecular target: T1, Recombinant human GM-CSF; experiment: cell-based or functional assay

T1 sequence (P04141 18-144 limits assumed): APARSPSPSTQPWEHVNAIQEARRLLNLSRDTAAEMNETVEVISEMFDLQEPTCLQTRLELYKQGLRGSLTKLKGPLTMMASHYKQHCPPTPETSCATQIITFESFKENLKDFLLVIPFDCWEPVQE

B1: chimeric 19/2 antibody (antibody, V domains shown)
VH: EVQLQQSGPELVKPGASVKISCKASGYTFTDYNIHWVKQSHGKSLDWIGYIAPYSGGTGYNQEFKNRATLTVDKSSSTAYMELRSLTSDDSAVYYCARRDRFPYYFDYWGQGTTLRVSS
VL: DIVMIQSQKFVSTSVGDRVNITCKASQNVGSNVAWLQQKPGQSPKTLIYSASYRSGRVPDRFTGSGSGTDFILTITTVQSEDLAEYFCQQFNRSPLTFGSGTKLELK
Kd (Recombinant human GM-CSF [1]): ~10 pM
EC50 of inhibition of GM-CSF-dependent proliferation of a human TF-1 leukemia cell line (0.5 ng/ml GM-CSF) (Recombinant human GM-CSF [2]): 30 pM
